From paper doi:10.1101/2022.07.13.499703

How the values were obtained:
Assay in all cases: crystal structure
[1] = biological target: BKPyV VP1 E73A variant pentamer (BK polyomavirus) (UniProt P03088)
[2] = biological target: BKPyV VP1 K69N-E82Q double mutant (N-Q) pentamer (BK polyomavirus) (UniProt P03088)
[3] = biological target: BKPyV VP1 A72V-E73Q-E82Q triple mutant (VQQ) pentamer (BK polyomavirus) (UniProt P03088)
[4] = biological target: BKPyV VP1 E73Q variant pentamer (BK polyomavirus) (UniProt P03088)

Substance: BKPyV VP1 E73A variant pentamer (from UniProt P03088 30-300) (domain or fragment)
- stoichiometry N [1]: 5

Substance: BKPyV VP1 K69N-E82Q double mutant (N-Q) pentamer (from UniProt P03088 30-300) (domain or fragment)
- stoichiometry N [2]: 5

Substance: BKPyV VP1 A72V-E73Q-E82Q triple mutant (VQQ) pentamer (from UniProt P03088 30-300) (domain or fragment)
- stoichiometry N [3]: 5

Substance: BKPyV VP1 E73Q variant pentamer (from UniProt P03088 30-300) (domain or fragment)
- stoichiometry N [4]: 5
